system: monoclonal antibody MV-001; experiment: In vitro binding assay (ELISA), parental antibody MV-001; parameters: species or system C57/Bl6 mice; details: peptide-BSA on ELISA plate; OD halfmax, dilution factor 1:X of parental AB MV-001
Method: 1. In vitro binding assay (ELISA)
Peptides derived from Phage Display as well as variants thereof were coupled to BSA and bound to ELISA plates (1 μM; as indicated in the respective figures) and subsequently incubated with the monoclonal antibody that was used for the screening procedure to analyse binding capacity of identified peptides.

Binding Capacity | Molecule
3 (strong binding :>20000) | GEMRHQPC [p4702]
3 (strong binding :>20000) | THMEFRRC [p4745]
3 (strong binding :>20000) | APIQFRHC [p4750]
1 (weak binding :<4000) | HEPLFSHC [p4719]
3 (strong binding :>20000) | SEFSHSSC [p4712]
3 (strong binding :>20000) | LHIPFRHC [p4726]
3 (strong binding :>20000) | QLFKHSPC [p4747]
1 (weak binding :<4000) | TPLMFWHC [p4733]
1 (weak binding :<4000) | EDWFFWHC [p4709]
3 (strong binding :>20000) | SQSYFKHC [p4755]
3 (strong binding :>20000) | NELRHSTC [p4701]
1 (weak binding :<4000) | QPNLFYHC [p4713]
3 (strong binding :>20000) | SNFRHSVC [p4749]
3 (strong binding :>20000) | SNSEFRRC [p4743]
3 (strong binding :>20000) | SAGSFRHC [p4710]
3 (strong binding :>20000) | NSSELRHC [p4752]
1 (weak binding :<4000) | QELKRYYC [p4724]
3 (strong binding :>20000) | ATPLFRHC [p4723]
1 (weak binding :<4000) | TSTEMWHC [p4754]
3 (strong binding :>20000) | SELRHSTC [p4744]
3 (strong binding :>20000) | EFLRHTLC [p4722]

biological target: monoclonal antibody MV-001; experiment: inhibition ELISA; competitor: coated original epitope p4371; details: not given

Inhibition Capacity (code (weaker than original epitope)) | Molecule
1 | SQFRHYC [p4385]
1 | QFKHDLC [p4391]
1 | TPFRHTC [p4384]
1 | LMFRHNC [p4386]
1 | LPFRHGC [p4388]
1 | SAFRHHC [p4387]
1 | QDFRHYC [p4380]
1 | TSFRHGC [p4382]
1 | ILFRHGC [p4390]
1 | SHFRHGC [p4389]
1 | TSVFRHC [p4383]
1 | SEFKHGC [p4381]

same assay, conditions: scale: code

Inhibition Capacity | Molecule
2 | HEFRHC [p4803]
2 | CHEFRH [p4802]

biological target: monoclonal antibody MV-001; experiment: ELISA, peptide-BSA coated, MV-001; details: not given

Binding Capacity (code (weak binding, OD halfmax 1:<4000)) | Molecule
1 | QELKRYYC [p4724]
1 | TPLMFWHC [p4733]
1 | HEPLFSHC [p4719]
1 | EDWFFWHC [p4709]
1 | QPNLFYHC [p4713]
1 | TSTEMWHC [p4754]

same assay, conditions: scale: code

Binding Capacity | Molecule
2 | ATFRHSPC [p4716]
3 | SNFRHSVC [p4749]
2 | VELRHSRC [p4704]
3 | THMEFRRC [p4745]
2 | MLPFRHGC [p4731]
2 | SQFRHYC [p4385]
2 | NELFKHFC [p4727]
2 | QFKHDLC [p4391]
3 | SNSEFRRC [p4743]
3 | ATPLFRHC [p4723]
2 | TPFRHTC [p4384]
2 | SSSFFPRC [p4708]
3 | GEMRHQPC [p4702]
2 | AEFMHSVC [p4739]
3 | LMFRHNC [p4386]
2 | APMYFPHC [p4717]
3 | YEFRHAQC [p4748]
3 | HEFRHC [p4803]
2 | LQFKHSTC [p4734]
3 | NSSELRHC [p4752]
2 | LPFRHGC [p4388]
2 | SLMRHSSC [p4721]
3 | LHIPFRHC [p4726]
3 | NELRHSTC [p4701]
2 | SAFRHHC [p4387]
2 | SAMRHSLC [p4732]

Binding Capacity | Molecule
3 | SAGSFRHC [p4710]
3 | ELFKHHLC [p4714]
2 | QDFRHYC [p4380]
2 | TSFRHGC [p4382]
3 | ILFRHGC [p4390]
2 | YSMRHDAC [p4705]
2 | TGLMFKHC [p4736]
2 | AYFPHTSC [p4751]
2 | AANYFPRC [p4706]
3 | EFLRHTLC [p4722]
2 | IGFRHDSC [p4742]
3 | SELRHSTC [p4744]
2 | DTYFPRSC [p4703]
3 | SQSYFKHC [p4755]
2 | ATFRHSTC [p4735]
2 | AEFSHWHC [p4737]
2 | SQYFPRPC [p4729]
3 | APIQFRHC [p4750]
3 | SEFSHSSC [p4712]
3 | QLFKHSPC [p4747]
2 | SHFRHGC [p4389]
3 | CHEFRH [p4802]
3 | TSVFRHC [p4383]
2 | TYFSHSLC [p4718]
2 | QVMRHHAC [p4711]
3 | SEFKHGC [p4381]

From patent US8613931B2, “Compounds for treating beta-amyloidoses” (Affiris AG, priority 2008, dated 2013)
